Results as given in ChEMBL document CHEMBL1153299, “Carbonic anhydrase activators: activation of the beta-carbonic anhydrase Nce103 from the yeast Saccharomyces cerevisiae with amines and amino acids” (Bioorg Med Chem Lett, 2009).

Substrate: NCCc1c[nH]cn1
Conditions: Saccharomyces cerevisiae
Description: Activity at yeast recombinant CA expressed in Escherichia coli

B1: Carbonic anhydrase (Saccharomyces cerevisiae S288c), P53615 (protein)
chain: MSATESSSIFTLSHNSNLQDILAANAKWASQMNNIQPTLFPDHNAKGQSPHTLFIGCSDSRYNENCLGVLPGEVFTWKNVANICHSEDLTLKATLEFAIICLKVNKVIICGHTDCGGIKTCLTNQREALPKVNCSHLYKYLDDIDTMYHEESQNLIHLKTQREKSHYLSHCNVKRQFNRIIENPTVQTAVQNGELQVYGLLYNVEDGLLQTVSTYTKVTPK
Q: Which kcat does the source give for B1 here?
A: 19.6 ×10⁵ /s
